Measured values reported in paper PMC10680704.

Molecular target: IGF2R ectodomain, recombinant, AlexaFlour488-labeled (UniProt P11717)

Substance | EC50 of mCherry uptake by K562 cells
G2 mCherry GELYTAC (IGF2 E6R, F19L, S39P), recombinant | 16 nM
mCherry GELYTAC (original, wild-type IGF2), recombinant | 101 nM
